# Results as given in the RNAGym collection of RNA variant scans (doi:10.1073/pnas.2313332121).
# B1: TPR t1 (parent)
# chain: GACCAAUCUGCCCUCAGAGCUCGAGAACAUCUUCGGAUGCAGAGGAGGCAGGCUUCGGUGGCGCGAUAGCGCCAACGUCCUCAACCUCCAAUGCAUCCCACCACAUGAUGAUGCCUGAAGAGCCUUGGUUUUUUG
# Variants of: B1
# Assay: polymerase ribozyme fitness, log enrichment relative to wild type (log ratio); higher = more active; in vitro selection for triplet polymerase activity
# How it was run: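 Mutant libraries for each subunit of a heterodimeric triplet polymerase ribozyme were made by PCR and then transcribed. Each library underwent one round of in vitro selection in triplicate: annealing with a biotinylated primer, the partner subunit and triplets, frozen incubation at −7 °C, gel excision of extended constructs, streptavidin-bead capture and RT-PCR. Input and output libraries were Illumina-sequenced, and only genotypes with ≥10 input reads and ≥1 read per output were kept. Fitness is the logarithm, base 2, of genotype enrichment over wild-type enrichment, computed from inverse-variance-weighted replicate averages.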
row,Variant,polymerase ribozyme fitness (log ratio)
1,GACCAAUCUGCCCUCAGAGCUCGAGAACAUCUUCGGAUGCAGAGGAGGCAGCCUUCGGUGGCGCGAUAGCGCCAACGUCCUCAACCUCCAAUCCAUCCCACCACAUGAUGAUGCCUGAAGAGCCUUGGUUUUUUG,-1.82
2,GACCAAUAUGCCCUGAGAGCUCGAGAACUUCUUCGGAUGCAGAGGAGGCAGGCUUCGGUGGCGCGAUAGCGCCAACGUCCUCAACCUCCAAUGCAUCCCACCACAUGAUGAUGCCUGAAGAGCCUUGGUUUUUUG,-2.66
3,GAUCAAUCAGCCCUCAGAGCUCGAGAACAUCUUCGGUUGCAGAGGAGGCAGGCUUCGGUGGCGCGAUAGCGCCAACGUCCUCAACCUCCAAUGCAUCCCACCACAUGAUGAUACCUGAAGAGCCUUGGUUUUUUG,-0.314
4,GACCAAUCUGCCCUCAGAGCUCGAGAACAUCUUCGGAUGCAGAGGAGGCAGGCUUCGGUAGCGCGAUAGCGCCAACGUCCUGAACCUCCAAUGCAUCCCAUCACAUGAUGAUGCCUGAAAAGCCUUGUUUUUUUG,-2.12
5,GACCAAUCUGCCCUGAGAGCUCGAGAACAUCUUCGGAUGCAGAGGAGGCAGGCUUUGGUGGCGCGAUAGCGCCAACGUCCUCAACCUCCAAUGCAUCCCACCACAUGAUGAUGCCUGAAGAGCCUUGGUUUUUUG,-2.17
6,GACCAAUCUGCCCGCAGAGCUCGAGAACAUCUUCGGCUGCAGAGGAAGCAGGCUUCGGUGGCGCGAUAGCGCCAACGUCCUCAACCUCCAAUGCAUCCCACCACAUGAUUAUGCCUGAAUAGCCUUGGUUUUUUG,-5.99
7,GACCAAUCUGCCCUCAGAGCUCGAGAACAUCUUCGGAUGCAGAGGAGGCAGGCUACGGUGGCGCGAUAGCGCUAACGUCCUCAACCUCCAAUGCAUCCCACCACAUGAUGAUGCCUGAAGAGCCUUGGUUUUUUG,0.172
8,GACCAAUCUGCCCUCAGAGCUCGAGAACAUCUUCGGAUGCAGAGGAGGCAGGCUUCGGUGGCGCGAUAGCGCCAACGUCCUCAACAUCCAAUGCAUCCCACCACAAGAUGAUGCCUGAAGAGCCUUGGUUUUUUG,0.119
9,GACCAAUCUGCCCUCAGAGCUCGAGAACAUCUUCGGAUGCAGAGGAGGAAGGCUUCGGUGGCGCGAUAGCGCAAACGUCCUCAACCUCCAAUGCAUCCCACCACAUGAUGAUGCCUGAAGAGCCUUGGUCUUUUG,0.174
10,GACCAAUCUGCCCUCAGAGCUCGAGAACAUCUUCGGAUGCAGAGGAGGCAGGCUUCGGUGGCGCAAUAGCGCCAACGUCCUCAACCUCCAAUGCAUCCCACCACAUGAUGCUGCCUGAAGAGCCUUGGUUUUUUG,-5.66
11,GACCAAUCUGCCCUCAGAGCUCGAGAACAUCUUCGGAUGCACACGAGGCAGGCUUCGGUGGCGCGAUAGCGCCAACGUCCUCAACCUCCAAUGCAUCCCACCACAUGAUGAUGCCUGAAGAGCCUUGGUUUUUUG,-0.912
12,GACCAAUCUGCCGUCAGAGCUCGAGAACAUCUUCGGAUGCAGAGGAGGCAGGCUUCGGUGGCGCGAUAGCGCCAACGUCCUCACCCUCCAAUGCAUCCCACUACAUGAUGAUGCCUGAAGAGCCUUGGUUUUUUG,-2.71
13,GACCAAUCUGCCCUCAGAGCUCGAGAACAUCUUCGGAUGCAUAGGAGGCAGGCUUCGGUGGCGCGAUAGCGCCAACCUCUUCAUCCUCCAAUGCAUUCCACCACAUGAUGAUGCCUGAAGAGCCUUGGUUUUUUG,-3.47
14,GACCAAUCUGCCCUCAGAGCUCGAGAACAUCUUCGGAGGCAGAGGAGGUAGGCUUCGGUGUCGCGAUAGCGCCAACGUCCUCAACCUCCAAUGCAUCCCACCACAUGAUGAUGCCUGAAGAGCCUUGGUUUUUUG,-1.52
15,GACCAAUCUGCCCUCAGAGCUCGAGGACCUCUUCGGAUGCAGAGGAGGCAGGCUUCGGUGGCGCGAUAGCGCCAACGUCCUCAACCUCCAAUGCAUCCCACCACAUGAUGAUGCCUGAAGAGCCUUGGUUUUUUG,-3.02
16,GACCAAUCUGCCCUCAGAGCUCGAGAACAUCUUCGGAUGCAGAGGUGGCAGGCUUCGGUGGCGCGAUAGCGCCAACGCCCUCAACCUCCAAUGCAUCCCACCACAUGAUGAUGCCUGAAGAGCCUUGGUUUUUUG,-1.07
17,GACCAAUCUGCCCUCAGGGCUCGAGAACAUCUUCGGAUGCAGAGGAGGAAGGCUUCGGUGGCGCGAUAGCGCCAACGUCCUCAACCUCCAAAGCAUCCCACCACAUGAUGAUGCCUGAAGAGACUUGGUUUUUUG,-4.5
18,GACCAAUCUGCCCUCAGAGCUCGAGAACAUCUUCGGAUGCAGAGGAGGAAGGCUUCGGUGGCGCGAUAGCGCCAACGUACUCAACCUCCAAUGCAUCCCACCACAUGAUGAUGCCUGAGGAGCCUUGGUUUUUUG,-2.87
19,GAGCAAUGUGCCCUCAGAGCUCGAGAACAUCUUCGGAUGCAGUGGAGGCAGGCUUCGGUGGCGCGAUAGCGUCAACGUCCUCAACCUCCCAUGCAUCCCACCACAUGAUGAUGCCUGAAGAGCCUUGGUUUUUUG,-2.6
20,GACCAAUCUGCCCUCAGAGCUAGAGAACAUCUUCGGAUGCAGAGGAGGCAGGCUUCGGUGGCGCGAUAGCGCCAACGUCCUCAACCUCCAAUGCAUCCCACCACAUGAUGCUGCCUGAAGAGCCUUGGUUUUUUG,-4.49
21,GACCAAUCUGCCCUCACAGCUCGAGAACAUCUUCGGAUGCAGAGGAGGCAGGCUUCGGUGGCGCGAUAGCGCCAACGUCCUCAACCUCCAAUGCAUCCCACCACAUGAUGAUGCCUGAACAGCCUUGGUUUUUUG,-1.58

row,Variant,polymerase ribozyme fitness (log ratio)
1,GACCAAUCUGCCCUCAGAGCUCGAGAACAUCUUCGGAUGCAGAGGAGGCAGGCUUCGGUGGCGCGAUAGCGCCAACGCCCUCAACCUCCAAUGCAUCCCACAACAUGAUGAUGCCUCAAGAGCCUUGGUUUUUUG,-6.34
2,GACCAAUCUGCCCUCAGAGCUCGAGAACAUCUUCGGAUGCAGAGGAGGCACGCUUCGGUGGCGCGAUAGCGCCAACGUCCUCAACCUCCAAUGCAUCCCACCACAUGAUGAUGCCUGAAGAGCCUUGGUUUUUUG,-3.7
3,GACCAAUCUGCCCUCAGAGCUCGAGAACAUCUUCGGAUGCAGAGGAGGCAGGCUUCGGUGGCGCGAUAGCGGCAACGGCCUCAACCUCCAAUGCAUCCCACCACAUGAUGAUGCCUGAAGAGCCUUGGUUUUUUG,-0.102
4,GACCAAUCUGCCCUCAGAGCUCGAGAACAUCUUCGGAUGCAGAGGAGGAAGGCUUCGGUGGCGCGAUAGCGCCAACGUACUCAACCUCCAAUGCAUCCCACCACAUGAUGAUGCCUGAAGAGCCUUGGUUUUUUG,-3.94
5,GACCAAUAUGCUCUCAGAGCUCGAGAACAUCUUCGGAUGUAGAGGAGGCAGGCUUCGGUGGCGCGAUAGCGCCAACGUCCUCAACUUCCAAUGCAUCCCACCACAUGAUGAUGCCUGAAGAGCCUUGGUUUUUUG,-0.152
6,GACCAAUCUGCCCUCAGAGCUCGAGAACAUCUUCGGAUGCAGAGGAGGCAGGCUUCGGUGGCGCGAUAGUCCCAACGUCCUCAACCUCCAAUGCAUCCCACCACAUGAUGAUGCCUGAAGAGCCUUGGUUUUUUG,-1.67
7,GACCAAUCUGCCCUCAGAGCUCGAGAACAUCUUCGGAUGCAGAGGAGGCGGGCUUCGGUGGCGCGAUAGCGCCAACGUCCUCAACCUCCAAUGCAUCCCACCAUAUGAUGAUGCCUGAAGAGCCUUGGUUUUUUG,-0.208
8,GACCAAUCUGCCCUCAGAGCUCGAGAACAUCUUCGGAUGGAGAGGAGGCAUGCUUCGGUGGCGCGAUAGCGCCAACGUCCUCAACCACCGAUGCAUCCCACCACAUGAUGAUGCCUUAAGAGCCUUGGUUUUUUG,-5.66
9,GACCAAUCUGCCCUCAGAGCUCGAGAACAUCUUCGGGUGCAGAGGAGACAGGCUUGGGUGGCGCGAUAGCGCCAACGUCCUCAACCUCCAAUACAUCCCACCACAUGAUCAUGCCUGAAGAGCCUUGGUUUUUUG,-5.64
10,GUCCAAUCUGCCCUCAGAGCUCGAGAACAUCUUCGGAUGCAGAGGAGGCAGGCUUCGGUGGCGCGAUAGCCCCAACGUCCUCAACCUCCAAUGCAUCCCAUCACAUGAUGAUGCCUGAAGAGCCUUUGUUUUUUG,-2.85
11,GACCAAUCUGCCCUCAGAGUUCGAGAACAUCUUCGGAUGCAGAGGAGGCAGGCUUCCGUGGCGCGAUAGCGCCAACGUCCUCAACCUCCAAUGCAUCCCACCAAAUGAUGAUGCCUGAAGAGCCUUGGUUUUUUG,-2.45
12,GACCAAUUUGCCCUCAGAGCUCGAGAACAUCUUCGGAUGCAGAGGAGGCAGGCUUCGGUGGCGCGAUAGCCCCAACGUCCUCAACCACCAAUGCAUCCCACCACAUGAUGAUGCCUGAAGAGCCUUGGUUUUUUG,-2.97
13,GACCAAUCUGCCCUCAGAGCUCGAGAACAUCUUCGGAUGCAGAGGAGUCAGGCUUCGGCGGCGCGAUAGCGCCAACGUCCUCAACCUCCAAUGCAUCCCACCACAUGAUGAUGCCUGAAGAGCCUUGGUUUUUUG,0.407
14,GAACAAUCUGCCCUCAGAGCUCGAGAACAUCUUCGGAUGCAGAGGAGGCAGGCUUCGGUGGCGCGAUAGCGCCAACGUCCUCAACCUACAAUGCAUCCCACCACAUGAUGAUGCCUGAAGAGCCUUGGUUUUUUG,-2.21
15,GACCAAUCUGCCCUCAGAGCUCGAGAACAUCUUCGGAUGCAGAGGAGGCAGGCUUCGGUGGCGCGAUAGCGCCAUCGUCCUCAACCUCCAAUGCAUCCCACCAAAUGAUGAUGCCUGAAGUGCUUUGGUUUUUUG,0.403
16,GACCAAUCUGCCCUCUGAGCUCGAGAACAUCUUCGGAUGCAGAGGAGGCAGGCUUCGGUGGCGCGAUAGCGCCAACGUCCGCAACCUCCAAUGCAUCCCACCACAUGAUGAUGCCUGAAGAGCCUUGGUUUUUUG,-5.13
17,GACCAACCUGCCCUCAGAGCUCGAGAACAUCUUCGGGUGCAGAGGAGGCAGGCUUCAGUGGUGCGAUAGCGCCAACGUCCUCAACCUCCAAUGCAUCCCACCACAUGAUGAUGCCUGAAGAGCCUUGGUUUUUUG,-5.38
18,GACCAAUCUGCCCUCAGAGCUCGAGAACAUCUUCGGAUGCUGAGGAGGCAGGCUUCCGUGGUGCGAUAGCGCCAACGUCCUCAACCUCCAAUGCAUCCCACCACAUGAUGAUGCCUGAAGAGCCUUGGUUUUUUG,-0.95
19,GACCAAUCUUCCCUCAGAGCUCGAGAACAUCUUCGGAUGCAGAGGAGGCAGGCUUAGGUGGCGCGAUAGCGCGAACGUCCUCAACCUCCAAUGCAUCCCACCACAUGAUGAUGCCUGAAGAGCCUUGGUUUUUUG,-2.43
20,GACCACUCUGCCAUCAGAGCUCGAGAACAUCUUCGGAUGCAGAGGAGCGAGGCUUCGGUGGCGCGAUAGCGCCAACGUCCUCAAACUCCAACGCAUCCCACCACAUGAUGAUGCCUGAAGAGCCUUGGUUUUUUG,-4.52
21,GACCAAUUUGCCCUCAGAGCUAGAGAACAUCUUCGGAUGCAGAGGAGGCAGGCUUCGGUGGCUCGAUAGCGCCAACGUCCCCAACCUCCAAUGCAUCCCACCACGUGAUGAUGCCUGAAGAGCCUUGGUUUUUUG,-7.76
